Test results as given in the nanobody polyreactivity screen of Harvey et al. (2022).

Experiment: yeast display, Sf9 membrane polyspecificity reagent, FACS + sequencing; frameworks hold sequencing errors
Method in brief: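 A synthetic nanobody library was expressed on Saccharomyces cerevisiae BJ5465 by galactose induction for 36–48 hours. The library was stained for 1 hour at 4 °C with 10% biotinylated, detergent-solubilized Sf9 membrane reagent and enriched with streptavidin microbeads before FACS. Low and high (top ~1%) gates were set on anti-HA fluorescence for expression and streptavidin fluorescence for reagent binding, and each polyreactivity label reflects the gate of origin.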

QVQLVESGGGLVQAGGSLRLSCAASGGTFTIYAMGWYRQAPGKERELVATINRGDRTNYADSVKGRFTISRDNAKNTVYLQMNSLKPEDTAVYYCAADFYYWYRGVYFVTRNYYWGQGTQVTVSS
polyreactivity (PSR sort gate): high polyreactivity

QVQLVESGGGLVQAGGSLRLSCAASGFTLAFYGMGWYRQAPGKERELVAAISRSGGSTYYADSVKGRFTISRDNAKNTVYLQMNSLKPEDTAVYYCAAAFRAGAVYGYYWGQGTQVTVSS
polyreactivity (PSR sort gate): high polyreactivity

QVQLVESGGGLVQAGGSLRLSCAASGFTFGHYAMGWYRQAPGKERELVAAIRWSGGSTYYADSVKGRITISRDHAKNTVYLQMNSLKPEDTAVYYCGARRFDGYDYDYWGQGTQVTESS
polyreactivity (PSR sort gate): low polyreactivity

QVQLVESGGGLVQAGGSLRLSCAASGSTFGKYTMGWYRQAPGKERELVAAISWSGGNTYYADSVKGRFTISRDNAKNTVYLQMNSLKPEDTAVYYCAAEREAYNTWFDYWGQGTQVTVSS
polyreactivity (PSR sort gate): high polyreactivity

QVQLVESGGGLVQAGGSLRLSCAASGSTFELYAMGLYRQAPGKERELVASITGDSTNYADSVKGRFTISRDNAKNTVYLQMNSLKPEDTAVYYCAAEYVPYYEYESWGQGTQVTVSS
polyreactivity (PSR sort gate): low polyreactivity

QVQLVESGGGLVQAGGSLRLSCAASGRTFGSYAMGWYRQAPGKERELVAAISSGGRTYYADSVKGRFTISRDNAKNTVYLQMNSLKPEDTAVYYCAARLISYKTPGGYNYWGQGTQVTVSS
polyreactivity (PSR sort gate): high polyreactivity

QVQLVESGGGLVQAGGSLRLSCAASGSTFYANAMGWYRQAPGKERELVAAITRSGAGTYYADSVKGRFTISRDNAKNTVYLQMNSLKPEDTAVYYCAKRTKTPTGYVWGGYDYWGQGTQVTVSS
polyreactivity (PSR sort gate): high polyreactivity

QVQLVESGGGLVQAGGSLRLSCAASGRIFWVYAMGWYRQAPGKERELVAAISLSGGRTYYADSVKGRFTISRDNAKNTVYLEMNSLKPEDTAVYYCNAVYPKRGGGRIVDYWGQGTQVTVSS
polyreactivity (PSR sort gate): high polyreactivity

QVQLVESGGGLVQAGGILRLSCAASGSIIHFYAKGGYREAPGKEWELVAAITSGTSTYYADSVKGRFTISRDNAKNTVYLQMNSLKPDDTAVYYCAAEASHSYYNAYPSYCGSDYWGQGTQVTVSS
polyreactivity (PSR sort gate): low polyreactivity

QVQLVESGGGLVQAGGSLRLSCAASGRTFQGYVMGWYRQAPRKERELVAAISRGTSTYYADSVKGRFTISRDNAKYTVYLQMNSLKPEDTAVYYCAADGERRHYWGQGTQVTVSS
polyreactivity (PSR sort gate): low polyreactivity

QVQLVESGGGLVQAGGSLRLSSAASGRIFIRNAMGWYRQAPGKERELVAAISWSGGRTYYADSVKGRFTISRDNAKNTVYLQMNSLKPEDTAVYYCAALRYAFQYGLSYYWGQGTQVTVSS
polyreactivity (PSR sort gate): high polyreactivity

QVQLVESGGGLVQAGGSLRLSCAASGFPFPDYAMGWYRQAPGKERELVAGISSTGDSTYYADSVKGRFTISRDNAKNTVYLQMNSLKPEDTAVYYCNAAQERPIIILFSKYDYWGQGTQVTVSS
polyreactivity (PSR sort gate): low polyreactivity

QVQLVESGGGLVQAGGSLRLSCAASGLIFSYYAMGWYRQAPGKETELVAGITRSGASTYADSVKGRFTISRDNAKNTVYLQMNSLKPEDTAVYYCAADWHYLGWFWQYSKYDYWGQGTQVTVSS
polyreactivity (PSR sort gate): high polyreactivity

QVQLVESGGGLVQAGGSLRLSCAASGRIFEYYVMGWYRQAPGKERELVAAINRRGTSTYYADSVKGRFTISRDNAKNTVDLQMNSLKPEDTAVYYCAAVDRDYARTTTYDYCGQGTQVTVSS
polyreactivity (PSR sort gate): high polyreactivity

QVQLVESGGGLVQAGGSRLICAASGLIFIWYTMGWYRQAPGKERELVAAIDSSGGNTYYADSLKGRFSISRDNAKNTVYLQMNSLKPEDTAVYYCAKDVGHGAGNLMGYWGQGTQVTVSS
polyreactivity (PSR sort gate): low polyreactivity

QVQLVESGGGLVQAGGSLRLSCAASGLIFRVYAMGWYRQAPGKERELVAAISISDGTTNYADSVKGRFTISRDNAKNTVYLQMNSLKPEDTAVYYCAADYDFYDFSYQSWSEENYWGQGTQVTVSS
polyreactivity (PSR sort gate): low polyreactivity

QVQLVESGGGLVQAGGSLRLSCAASGSTFVCYGMGWYRQAPGKEREFVAAISTSGGRTYYADSVKGRFSISRDNAKNTVYLQMNSLKQEDTAVYYCATRPYFTYRWYDYWGQGTKVTVSS
polyreactivity (PSR sort gate): high polyreactivity

QVQLVESGGGLVQAGGSLRLSCAASGFTFVYYVMGRYRPAPGKERDLVAAINAGGGSTYYADSVKGRFTISRDNAKNTVYLQMNSLKPEDTSVYYCAARYHTSTRPCRNYWGQGTQVTVSS
polyreactivity (PSR sort gate): high polyreactivity

QVQLVESGGGLVQAGGSLRLSCAASGNTLDYYAMGWYRQAPGKEREVVEGIDDRTSTNYADSVKGRFTISRDNAKYTVYLQMNSLKPEDTAVYYCNADDGTVNYTSYYSPAVTYDSWGQGTQVTVSS
polyreactivity (PSR sort gate): low polyreactivity

QVQLVESGGGLVQAGGSLRLSCAASGGTFGYYAMGWYRQAPGKERELVAAINRSDGGTYYADSVKGRFTISRDNAKNTVYLQMNSLKPEDTAVYYCNADDFYYDEPYDYWGQGTQVTVSS
polyreactivity (PSR sort gate): low polyreactivity

QVQLVESGGGLVQAGGSLRLSCAASGRIFFGYAMGWYRQAPGKEREFVAAINWIGGRTYYADSVKGRFTISRDNAKNTVYLQMNSLKPEDTAVYYCAKEVSPYWTFDYWGQGSQVTVSS
polyreactivity (PSR sort gate): low polyreactivity

QVQLVESGGGLVQAGGILRLSCAASGRTVVSYAMGWYRQQPGKGRELVAVITGGTGNTYYADSVKGRFTISRDNEKNTVYLQMNSLKREDTAVYYCNARGCYYKFRYPLYYWGQGTQVTVSS
polyreactivity (PSR sort gate): high polyreactivity

QVQLVESGGGLVQAGGSLRLSCAASGYTFWQYAMGWYRQAPGKERELVATITSRGGSTYYADSVKGRFTISRDNAKNTVYLQMNSLKPEDTAVYYCNARRRYSTRRSDYWGQGTQVTVSS
polyreactivity (PSR sort gate): high polyreactivity

QVQLVESGAGLVQAGGSLRLSCAASGRTFGRYAMAWYRQAPGKERELVAAINNGGGTYYADSVKGLFTISRDNAKNTVYLLINSLYPEDTAVYYCAAATRKRVGSYYYWGQGTQVTVSS
polyreactivity (PSR sort gate): high polyreactivity

QVQLVESGGGLVQAGGSLRLSCAASGSIFKYNTMGWYREAPGKESELVAAINGGGSTYYADSVKGRFTISRDNAKNTVYVTMNCLNPEDTAVYYCAKVQRTRGWSLDYWGHGTQVTVSS
polyreactivity (PSR sort gate): high polyreactivity

QVQLVESGGGLVQAGGSLSLSCAASGSTFVENAMGWYRPAPGKERELVAGISIGGITYYADSVKGRFTISRDNAKNTVYLQMNSLKPEDTAVYYCGKRHKRTRNKYYYWGQGTQVNVSS
polyreactivity (PSR sort gate): high polyreactivity

QVQLVESGGGLVQEGGSLRLSCAASGIIHYYYVMGWYRPAPGKERELVAAINRSGTATYYADSVKGRFTISRDNAKNTVYFQMNSLIPEDTAVYYCAADVRWRYYWGQGTQVTVSS
polyreactivity (PSR sort gate): high polyreactivity

QVQLVESGGGLVQAGGSLRLSCAASGSIFYYYAMGWYRQAPGKVRELVASISSGGRTYYADSVKGRFTISRDNAENTLYLQLNSLKPEDSAVYYCAVEVWWWEGDYDYWGLGTQVTVSS
polyreactivity (PSR sort gate): high polyreactivity

QVQLVESGGGLVQAGGSLRLSCAASGSIFKFYTMGWYRQAPGKERELVAAISWSGGRTYYADSVKGRFTISRDNAKNTVYLQMNSLKPEDTAVYYCAVPRVGLHGIGSDYWGQGTQVTVSS
polyreactivity (PSR sort gate): high polyreactivity

QDQLVESGGGLVQAGGSLRLSCAASGLIFPYNAMGWYRQAPGKERELVAAIDTRGSSTYYADSVKGRFTISRDNAKNTVYLQMNSLKPEDTAVYYCIPRSGRSPTGFRYWGQGTEVTVSS
polyreactivity (PSR sort gate): high polyreactivity

QVQLVQSGGGLVQAGGSLRLICAASGSNFYGNAMGWYRQAPGKERELVAAISRGGGYTYYADSVKGRFTISRDNAKNTVYLEMNSLKPEDTAVYYCDATRYLHPWYYPYYYWGQVTQVTVSS
polyreactivity (PSR sort gate): low polyreactivity
